From paper PMC3280358 (Molecular Cell, 2012)
Residue numbers refer to the chain shown, from its start. Numbers in names are those of the source. Each block holds one binder with its values, some of them ahead of it.

Molecular target: T1, recombinant full-length FLAG-Nbs1 (human, UniProt O60934 1-754)
T1 construct: Nbs1 (Nijmegen breakage syndrome gene product), human, full length; also called recombinant full-length Nbs1; source: recombinant, a gift from Tanya Paull
T1 sequence (looked up): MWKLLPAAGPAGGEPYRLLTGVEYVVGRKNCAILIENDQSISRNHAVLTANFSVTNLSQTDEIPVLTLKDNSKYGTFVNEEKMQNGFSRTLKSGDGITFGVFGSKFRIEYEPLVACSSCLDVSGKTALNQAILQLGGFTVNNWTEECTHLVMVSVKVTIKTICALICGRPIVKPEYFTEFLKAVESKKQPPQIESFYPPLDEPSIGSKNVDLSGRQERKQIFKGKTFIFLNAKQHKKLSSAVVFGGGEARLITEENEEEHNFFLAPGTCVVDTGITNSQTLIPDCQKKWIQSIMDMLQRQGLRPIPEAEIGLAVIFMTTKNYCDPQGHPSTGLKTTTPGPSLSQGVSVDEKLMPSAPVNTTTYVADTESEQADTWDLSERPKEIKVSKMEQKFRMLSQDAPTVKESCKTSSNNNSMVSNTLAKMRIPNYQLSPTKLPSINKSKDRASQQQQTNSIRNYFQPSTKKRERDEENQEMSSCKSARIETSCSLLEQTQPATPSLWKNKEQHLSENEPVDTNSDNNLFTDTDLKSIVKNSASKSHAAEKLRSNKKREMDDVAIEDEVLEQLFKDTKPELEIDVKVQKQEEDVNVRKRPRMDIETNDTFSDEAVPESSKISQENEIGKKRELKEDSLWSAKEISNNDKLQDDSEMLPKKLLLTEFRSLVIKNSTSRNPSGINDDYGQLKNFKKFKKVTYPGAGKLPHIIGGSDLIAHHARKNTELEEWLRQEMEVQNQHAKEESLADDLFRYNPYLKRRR
Assay: far-Western, overlay or dot blot; Rad51 NTD kinase reaction (250 μM ATP) resolved by SDS-PAGE, transferred to nitrocellulose, incubated with recombinant full-length FLAG-Nbs1 (∼ 2 μg), detected with anti-Nbs1 antibody
Details: both partners purified

binding result: binds
B1: Rad51 NTD with S14D substitution (domain or fragment, human, UniProt Q06609 1-86, looked up)
chain: MAMQMQLEANADTDVEEESFGPQPISRLEQCGINANDVKKLEEAGFHTVEAVAYAPKKELINIKGISEAKADKILAEAAKLVPMGF
notes: also called NTD S14D; source: recombinant

binding result: binds
B2: Rad51 NTD with S14E substitution (domain or fragment, human, UniProt Q06609 1-86, looked up)
chain: B1 chain with D14E
notes: also called NTD S14E; source: recombinant
